Test results as given in publication PMC10244946.
Read-outs that look alike come from different tables or passages of the source.

Columns and labels:
[1] = target: HER2 on HER2-expressing BT474 and SKOV-3 cells (human (endogenous in BT474 and SKOV-3)) (UniProt P04626); test: radioligand binding
[2] = target: HER2 (antigen of the Lindmo immunoreactive fraction assay; form not told); test: Lindmo assay
[3] = target: HER2 on HER2-expressing BT474 and SKOV-3 cells (human (endogenous in BT474 and SKOV-3)) (UniProt P04626); test: radioligand binding; remark: listed apart in the source

| percent associated with cells after 1 h at 4 °C [1] [%] | immunoreactive fraction [2] [%] | Kd [1] [nM] | Kd [3] [nM] | percent of input activity bound to cells after 1 h at 4 °C [1] [%] | Substance |
| --- | --- | --- | --- | --- | --- |
|  | 69 | 3.4 |  |  | [^211At]MEAGMB-5F7GGC (VHH) |
|  | 85.8 |  |  | 7.5 | iso-[^211At]AGMB-PODS-5F7GGC (VHH) |

Further lines, the substance ahead of its results:

| Substance | percent associated with cells after 1 h at 4 °C [1] [%] | immunoreactive fraction [2] [%] | Kd [1] [nM] | Kd [3] [nM] | percent of input activity bound to cells after 1 h at 4 °C [1] [%] |
| --- | --- | --- | --- | --- | --- |
| [^125I]MEGMIB-5F7GGC (VHH) | 5.8 |  |  |  |  |
| [^177Lu]Lu-DOTA-PODS-5F7GGC (VHH) |  | 71.2 |  |  |  |
| iso-[^131I]GMIB-PODS-5F7GGC (VHH) |  | 84 | 5.9 | 3.3 | 7.4 |
